Data set [1] has as its target hnRNP A1/A2 (Homo sapiens) (UniProt P09651+P22626). Conditions: apparent Kd, likely CITED; stated for A1 and A2; excess TS10 abolishes ABS stimulation in HeLa extract.
Data set [2] deals with MS2 bacteriophage coat protein (Bacteriophage MS2) (UniProt P03612). The note with it: likely CITED; stated Kd for cognate site.
Chain of MS2 bacteriophage coat protein (Bacteriophage MS2) (P03612 2-130): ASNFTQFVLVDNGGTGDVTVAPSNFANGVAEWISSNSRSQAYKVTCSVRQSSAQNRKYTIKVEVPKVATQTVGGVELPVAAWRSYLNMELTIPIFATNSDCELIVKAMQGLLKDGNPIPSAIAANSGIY

Chain of hnRNP A1/A2 (Homo sapiens) (P09651 whole entry, chain 1 of 2): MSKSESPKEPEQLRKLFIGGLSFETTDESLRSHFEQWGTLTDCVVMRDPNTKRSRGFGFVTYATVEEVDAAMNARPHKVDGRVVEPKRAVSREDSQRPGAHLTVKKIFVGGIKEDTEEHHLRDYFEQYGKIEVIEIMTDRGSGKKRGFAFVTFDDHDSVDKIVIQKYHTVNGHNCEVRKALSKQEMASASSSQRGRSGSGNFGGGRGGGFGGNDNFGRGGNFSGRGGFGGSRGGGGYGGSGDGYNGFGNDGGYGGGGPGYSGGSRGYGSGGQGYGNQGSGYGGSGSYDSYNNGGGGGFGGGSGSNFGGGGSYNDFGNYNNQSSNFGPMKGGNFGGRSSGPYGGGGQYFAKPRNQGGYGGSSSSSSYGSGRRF
Chain of hnRNP A1/A2 (Homo sapiens) (P22626 whole entry, chain 2 of 2): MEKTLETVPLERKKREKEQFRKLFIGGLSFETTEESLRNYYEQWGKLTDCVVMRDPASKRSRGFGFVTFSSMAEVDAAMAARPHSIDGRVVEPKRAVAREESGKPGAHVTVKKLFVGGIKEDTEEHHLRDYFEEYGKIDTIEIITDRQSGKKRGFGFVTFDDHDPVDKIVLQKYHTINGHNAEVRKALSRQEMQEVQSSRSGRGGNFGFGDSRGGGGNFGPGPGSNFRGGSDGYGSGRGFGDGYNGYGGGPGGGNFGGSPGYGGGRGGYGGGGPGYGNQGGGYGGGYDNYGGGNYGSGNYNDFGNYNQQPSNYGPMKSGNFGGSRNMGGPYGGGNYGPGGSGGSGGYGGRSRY

With “TS10 telomeric DNA oligo (60 nt, nine A1 binding sites)”, in data set [1], the Kd is below 5 nM. “MS2 stem-loop binding site in C5 pre-mRNA (position -26)” displayed a Kd in data set [2] of 1 nM.

The values above are taken from patent publication US20060058253.
